Key:
[1] = target: T1, H46R/H48Q/C146S Sod1 labeled with Alexa-546 at C57 (yeast); assay: other fluorescence titration; microplate, quenching of Alexa-546-labeled Sod1 on titration with Ccs1; Sod1 zinc bound and disulfide reduced (E, Zn-Sod1^SH); 20 mM Tris pH 7.5, 150 mM NaCl, 1 mM TCEP, 0.01% octyl glucoside and CHAPS
T1 sequence (P00445 2-154 with H46R H48Q C146S, looked up): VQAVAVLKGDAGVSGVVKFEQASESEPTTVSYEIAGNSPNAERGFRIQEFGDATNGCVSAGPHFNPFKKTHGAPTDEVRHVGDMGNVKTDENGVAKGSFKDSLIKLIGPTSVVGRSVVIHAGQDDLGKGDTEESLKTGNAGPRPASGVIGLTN

[2] = target: T1, H46R/H48Q/C146S Sod1 labeled with Alexa-546 at C57 (yeast); assay: other fluorescence titration; microplate, quenching of Alexa-546-labeled Sod1 on titration with Ccs1; Sod1 metal deficient and disulfide reduced (E, E-Sod1^SH); 20 mM Tris pH 7.5, 150 mM NaCl, 1 mM TCEP, 0.01% octyl glucoside and CHAPS
[3] = target: T1, H46R/H48Q/C146S Sod1 labeled with Alexa-546 at C57 (yeast); assay: other fluorescence titration; microplate, quenching of Alexa-546-labeled Sod1 on titration with Ccs1; Sod1 zinc bound and disulfide reduced (E, Zn-Sod1^SH); 20 mM Tris pH 7.5, 150 mM NaCl, 1 mM TCEP, 0.01% octyl glucoside and CHAPS; remark: listed apart in the source
[4] = target: T1, H46R/H48Q/C146S Sod1 labeled with Alexa-546 at C57 (yeast); assay: other fluorescence titration; microplate, quenching of Alexa-546-labeled Sod1 on titration with Ccs1; Sod1 metal deficient and disulfide reduced (E, E-Sod1^SH); 20 mM Tris pH 7.5, 150 mM NaCl, 1 mM TCEP, 0.01% octyl glucoside and CHAPS; remark: listed apart in the source

Kd [1]: 114 nM
Kd [2]: 34 nM
Kd [3]: 134 nM
Kd [4]: 36 nM
B1: copper chaperone for Sod1 (Ccs1), full-length wild type (natural protein)
chain: GHMTTNDTYEATYAIPMHCENCVNDIKACLKNVPGINSLNFDIEQQIMSVESSVAPSTIINTLRNCGKDAIIRGAGKPNSSAVAILETFQKYTIDQKKDTAVRGLARIVQVGENKTLFDITVNGVPEAGNYHASIHEKGDVSKGVESTGKVWHKFDEPIECFNESDLGKNLYSGKTFLSAPLPTWQLIGRSFVISKSLNHPENEPSSVKDYSFLGVIARSAGVWENNKQVCACTGKTVWEERKDALANNIK
